Test results taken from patent publication EP4659811A1 (Université de Strasbourg, dated 2025).

B1: antibody B7P6 (antibody, V domains shown)
VH: EVQLVQSGAELKKPGESLKISCKGSGFTFTNYWIAWVRQMPGKGLEWMGIIYPDDSDARYSPSFEGQVTISVDKSISTAYLQWSSLKASDTAIYYCARGGFCSGSVCYNPAWFDLWGQGTLVTVSS
VL: DIQMTQSPSSLSASVGDRVTITCRASQTINTYLNWYLQKPGKAPKLLISDASSLETGVPSRFSGSGSGTDFTLTISSLQPDDFATYYCQQSYSTPLTFGGGTKVEIK
B2: antibody F2P7 (antibody, V domains shown)
VH: EVQLVQSGGGLVQPGGSLKLSCAASGFSSSGSEIHWVRQASGRGLEWIGRVRSTANRHAPGYTESVRGTFTVSRDESKNTASLELKSLKIEDTAVYYCTGVRGVISRYFAMDVWGQGTTVTVSS
VL: QSALTQPASVSGSPGQSITISCTGTNSDLGSYNYVSWYRLHPGKDPHLIIYDVTHRPSGVSSRFSGSKSGKTASLTISGLQSEDEAEYFCCSYASVGSPIFGGGTKVTVL
B3: antibody F3P7 (antibody, V domains shown)
VH: QVQLVQSGAEVKKPGASVKVSCKVSGYTFTSYSMHWLRQAPGQRLEWMGWINAGNGDTKYSQKFQGRITISRDTSARTTYMELSSLRSEDTAVFYCARSNSPTVTYNYYYYAMDVWGQGTTVTVSS
VL: EIVLTQSPGTLSLSPGERATLSCRASQSVRSSYLAWYQQQAGQAPRLLIYDASSRATGIPDRFSGSGSGTDFSLTISRLDPEDFAVYYCQQYGNSPLTFGGGTKVEIK
B4: antibody E6P5 (antibody, V domains shown)
VH: EVQLVESGGGLVQPGRSLRLSCSASGFTFDDHAMHWVRQAPGKGLEWVAGINWNSASIVYADSVKGRFTISRDNVKNSLYLQMNSLRADDTALYYCAKDFGLWFGESRGIDAWGRGTTVTVSS
VL: DIVMTQSPLSLPVTPGEPASISCRPSQSLLHSNGYNYLNWYLQKPGRSPQLLIYLGSNRASGVPDRFSGSGSGTDFTLKISRVEAEDVGIYYCMQALQTPITFGQGTRLEIK
B5: antibody D7P6 (antibody, V domains shown)
VH: EVQLLESGGGLVQPGGSLRLSCAASGFPFSSYAMSWVRQAPGKGLEWVSGITGSASGTYYADSVKGRFTISRDNSKNTLYLRMNSLRAEDTAVYYCAKEGAYSYDYWYFDLWGRGTLVTVSS
VL: EIVLTQSPGTLSLSPGERATLSCRASQSVSGSYLAWYQQKPGQTPRLLIYGASSRATGIPDRFSGSGSGTDFTLTINRLDPEDFGVYYCQQYGSLVTFGGGSKVEIK
B6: antibody B10P1 (antibody, V domains shown)
VH: EVQLSESGGGLVQPGGSLRLSCAASGFTFSSYAMSWVRQAPGKGLEWVSSLTGSGGSTYYRDSVKGRFTIFRDNSKKTLYMQMNSLRAEDTAVYYCAKEGAYSYDFWYFDLWGRGTLVTVSS
VL: EIVLTQSPGTLSLSPGERATLSCRASQTVSGNYLAWYQQKPGQSPSLLIYGASSRATGIPDRFTGSGSGTDFTLTISRLEPADFAVYYCQQYGRPLTFGGGTKVDIK
B7: antibody G9P2 (antibody, V domains shown)
VH: EVQLLESGGGLVQPGGSLRLSCAASGFTFSSYAMSWVRQAPGKGLEWVSSLTGSGGSTYYRDSVKGRFTIFRDNSKKTLYMQMNSLRAEDTAVYYCAKEGAYSYDFWYFDLWGRGTLVTVSS
VL: EIVLTQSPGTLSLSPGERATLSCRASQTVSGNYLAWYQQKPGQSPSLLTYGASSRATGIPDRFTGSGSGTDFTLTISRLEPADFAVYYCQQYGRPLTFGGGTKVEIK
B8: antibody F4P5 (antibody, V domains shown)
VH: EVQLVESGGGVVQPGRSLRLSCAASGFTFSNFGMHWVRQPPGKGLEWVAVISYDGSDKFYADSVKGRFTISRDNFKNTLYVQMNSLRAEDTAVYYCAKDRVRTKYYYDHSGPFDYWGRGTLVTVSS
VL: SYELTQPPSVSVAPGQTARIACGGNNIGSKSVHWYQQRPGQAPVLVVYDDDDRPSGIPERFSGSNSGNTATLTISRVEAGDEADYFCQVWMTNSDRPVFGGGTKLTVL
B9: antibody D11P7 (antibody, V domains shown)
VH: EVQLVESGGGLVQPGGSLRLSCAASGFTFRSYTMDWVRQAPGKGLEWVSCISGSSNHKYYADSVRGRFTISRDNAKNSLFLQMNSLRAEDSAVYYCAREDDILTPLYGMDVWGPGTTVTVSS
VL: QSALTQPASVSGSPGQSITISCTGTSSDVGAYNYVSWYRLRPGKDPHLIIYDVSHRPAGVSNRFSGSKSGNTASLTISGLQAEDEDEYYCCSYAHRGTPLFGGGTKLTVL
B10: antibody C11P7 (antibody, V domains shown)
VH: EVQLVESGGGLVQPGGSLKLSCAASGFSLSNSEVHWVRQASGKGLEWIGRVRSRANRHATGYTESVNGRFTVSRDDSKNTASLQLESLKIEDTAVYYCTGVRGVISRYFAMDVWGQGTTVTVSS
VL: QSALTQPASVSGSPGQSITISCTGTSSDVGAYNYVSWYRLRPGKDPHLIIYDVSHRPAGVSNRFSGSKSGNTASLTISGLQAEDEDEYYCCSYAHRGTPLFGGGTKLTVL
B11: antibody D3P7 (antibody, V domains shown)
VH: QVQLVQSGSELKKPGASVRVSCKASAYTFTNSAINWVRQAPGQGLEWTGWINTNTGNPAYAQGFRGRFVFSLDTSVSEAYLQITNLKAEDTATYYCAVPYNFGGDHNSFHFFGMDVWGQGTTVTVSS
VL: QSALTQPASVSGSPGQSITISCTGSSSDVGTYNFVSWYQQQPAKAPKVMIYEGTKRPSGISDRFSGSKSGNTASLTISGLQAEDEADYYCSSYAGGNAFVFGTGTRVSVL
B12: antibody E4P2 (antibody, V domains shown)
VH: QVQLQESGPGLVKPSQTLSLTCTVSGGSISSGGYYWSWIRQHPGKGLEWIGYMYYSGSTNYNPSLKSRVTISVDTSKNQFSLKLTSVTAADTAVYYCARDRRDYGDYYYFGMDVWGQGTTVTVSS
VL: QSVLTQPPSVSGAPGQRVTISCTGSSSNIGAGYDVHWYQQLPGTAPKLLIYANSNRPSGVPDRFSGSKSGTSASLAITGLQAEDEANYYCQSYDSSLSVYVVFGGGTKLTVL
B13: antibody G5P6 (antibody, V domains shown)
VH: QVQLVQSGAEVKKPGASVKVSCKASGYTFTTHIIHWVRQAPGQRLEWMGWINAGNGNTKYSEKFQGRVTLTRDTSASTAYMELSSLRSEDTAIYYCAREDQWLGRSPLEYWGQGTLVTVSS
VL: EIVLTQSPGTLSLSPGERATLSCRASQSVSSSYLAWYQHKPGQAPRLLIYGASSRATGIPDRFSGSGSGTDFTLTVSRLEPEDFAVYYCQQYGNSYPWTFGQGTKVEIK

Experiments:
[1] = target: VP1 capsid protein on BKV pseudovirions of genotype II (GBR-12; AB263920) (BK virus genotype II (GBR-12)); assay: cell-based or functional assay
[2] = target: VP1 capsid protein on BKV pseudovirions of genotype IVc2 (A-66H; AB369093) (BK virus genotype IVc2 (A-66H)); assay: cell-based or functional assay
[3] = target: VP1 capsid protein on BKV pseudovirions of genotype Ia (BK-D; JF894228) (BK virus genotype Ia (BK-D)); assay: cell-based or functional assay
[4] = target: T1, VP1 pentamer of BKV genotype II (recombinant) (BK virus genotype II, UniProt P14996 30-300); assay: ELISA, coated VP1 pentamer
T1 construct: also called GII; VP1 geno II pentamer; not shown: N-terminal His-tag of pESPRIT002; C-terminal biotin acceptor peptide (BAP) of pESPRIT002

[5] = target: T2, VP1 pentamer of BKV genotype IV (recombinant) (BK virus genotype IV, UniProt P14996 30-300); assay: ELISA, coated VP1 pentamer
T2 construct: also called GIV; VP1 BKV subtype IV; not shown: N-terminal His-tag of pESPRIT002; C-terminal biotin acceptor peptide (BAP) of pESPRIT002

Binder	Neutralization PSV IC50 [1]	Neutralization PSV IC50 [2]	Neutralization PSV IC50 [3]	EC50 [4]	EC50 [5]	binding result [4]	binding result [5]
B1	0.0044 µg/mL	0.121 µg/mL	0.0479 µg/mL	0.04 µg/mL	0.1 µg/mL		
B2	> 50 µg/mL	> 50 µg/mL	> 50 µg/mL	10 µg/mL	4 µg/mL		
B3	0.0457 µg/mL	0.614 µg/mL	> 50 µg/mL	1.5 µg/mL	1.8 µg/mL		
B4	0.232 µg/mL	1.19 µg/mL	0.0008 µg/mL	0.6 µg/mL	3 µg/mL		
B5	0.0103 µg/mL	> 50 µg/mL	0.096 µg/mL	0.25 µg/mL	70 µg/mL		
B6	0.107 µg/mL	> 50 µg/mL	1.27 µg/mL	2.8 µg/mL	15 µg/mL		
B7	0.0336 µg/mL	> 50 µg/mL	0.683 µg/mL	1.5 µg/mL	10 µg/mL		
B8	0.471 µg/mL	15.9 µg/mL	0.0008 µg/mL	10 µg/mL	12 µg/mL		
B9	0.0901 µg/mL	> 50 µg/mL	0.275 µg/mL			no binding (tested: starting at 50 µg/mL)	no binding (tested: starting at 50 µg/mL)
B10	> 50 µg/mL	> 50 µg/mL	> 50 µg/mL	6 µg/mL	4 µg/mL		
B11	> 50 µg/mL	> 50 µg/mL	> 50 µg/mL	0.15 µg/mL	0.3 µg/mL		
B12	0.979 µg/mL	> 50 µg/mL	0.0399 µg/mL	0.025 µg/mL	0.18 µg/mL		
B13	0.0082 µg/mL	0.0889 µg/mL	0.299 µg/mL	0.28 µg/mL	0.7 µg/mL		
